Molecular target: T1, HLA-A*02:01 (human)
T1 construct: Captured on streptavidin plates and detected with anti-b2m; also called peptide-receptive MHC molecules; MHC class I
Assay: UV-ligand exchange, anti-b2m ELISA; peptide exchange yield grade (+ >=10%, ++ >=20%, +++ >=50, ++++ >=75%)
Description: Candidate peptides for T cell based therapies according to the present invention were further tested for their MHC binding capacity (affinity). The individual peptide-MHC complexes were produced by UV-ligand exchange, where a UV-sensitive peptide is cleaved upon UV-irradiation, and exchanged with the peptide of interest as analyzed. Only peptide candidates that can effectively bind and stabilize the peptide-receptive MHC molecules prevent dissociation of the MHC complexes. To determine the yield of the exchange reaction, an ELISA was performed based on the detection of the light chain (β2m) of stabilized MHC complexes. The assay was performed as generally described in Rodenko et al. (Rodenko et al., 2006).
96 well MAXISorp plates (NUNC) were coated over night with 2 ug/ml streptavidin in PBS at room temperature, washed 4× and blocked for 1 h at 37° C. in 2% BSA containing blocking buffer. Refolded HLA-A*02:01/MLA-001 monomers served as standards, covering the range of 15-500 ng/ml. Peptide-MHC monomers of the UV-exchange reaction were diluted 100 fold in blocking buffer. Samples were incubated for 1 h at 37° C., washed four times, incubated with 2 ug/ml HRP conjugated anti-β2m for 1 h at 37° C., washed again and detected with TMB solution that is stopped with […]. Absorption was measured at 450 nm. Candidate peptides that show a high exchange yield (preferably higher than 50%, most preferred higher than 75%) are generally preferred for a generation and production of antibodies or fragments thereof, and/or T cell receptors or fragments thereof, as they show sufficient avidity to the MHC molecules and prevent dissociation of the MHC complexes.

| Binder | peptide exchange yield [%] |
| --- | --- |
| VVVTGLTLV | 20 to 50 |
| TQTTHELTI | 50 to 75 |
| LLRFSQDNA | 50 to 75 |
| SLLDTLREV | 50 to 75 |
| GLDVTSLRPFDL | 50 to 75 |
| VLPKLYVKL | 20 to 50 |
| SLDGFTIQV | 20 to 50 |
| ALVEVTEHV | 20 to 50 |
| KLSDSATYL | 50 to 75 |
| YTAQIGADIAL | 50 to 75 |
| RLPNAGTQV | ≥ 75 |
| VLASGFLTV | ≥ 75 |
| NLREGDQLL | 50 to 75 |
| TQTAVITRI | 10 to 20 |
| IVREFLTAL | 50 to 75 |
| GLASRILDA | 50 to 75 |
| TASAITPSV | 50 to 75 |
| YTQPFSHYGQAL | 50 to 75 |
| SLDGTELQL | 50 to 75 |
| NLMASQPQL | 50 to 75 |
| ATGNDRKEAAENSL | 50 to 75 |
| SLNGNQVTV | 10 to 20 |
| FLLDQVQLGL | 50 to 75 |
| GLAFSLYQA | 20 to 50 |
| KLNDTYVNV | 50 to 75 |
| SMHQMLDQTL | 20 to 50 |
| LILESIPVV | 20 to 50 |

| Binder | peptide exchange yield [%] |
| --- | --- |
| GLAPNTPGKA | 50 to 75 |
| LVRDTQSGSL | 20 to 50 |
| GLESEELEPEEL | 20 to 50 |
| GLAPFLLNAV | 50 to 75 |
| VAIGGVDGNVRL | 20 to 50 |
| SLSPVILGV | ≥ 75 |
| VLAEGGEGV | 50 to 75 |
| KVVGKDYLL | 10 to 20 |
| MLAEKLLQA | 10 to 20 |
| FLLRFSQDNA | 20 to 50 |
| MISRTPEV | 20 to 50 |
| MLTELEKAL | 20 to 50 |
| STYGGGLSV | 50 to 75 |
| KLFGHLTSA | 20 to 50 |
| YMLDIFHEV | 20 to 50 |
| VVMEELLKV | 20 to 50 |
| LLSGDLIFL | 50 to 75 |
| GAIDLLHNV | 20 to 50 |
| YQDLLNVKM | 50 to 75 |
| GLMKDIVGA | 50 to 75 |
| LLANGVYAA | 10 to 20 |
| LLFAGTMTV | 20 to 50 |
| LLPPPPPPA | 50 to 75 |
| SLVSEQLEPA | 50 to 75 |
| SLYNLGGSKRISI | ≥ 75 |
| IAAIRGFLV | 50 to 75 |
| ALWLPTDSATV | 50 to 75 |

Source: patent US20180282393A1 (IMMATICS BIOTECHNOLOGIES, published 2018)
